“Also recorded” adds a separate entry of the source. Where two headings read alike, the source gives them in different places. Blank lines part the entries; values can stand above or below the molecule they belong to.
Experiments:
[1] = target: RPTPσ on mouse dorsal root ganglion (DRG) neurons (mouse) (UniProt B0V2N1); test: cell-based or functional assay
[2] = target: Mouse RPTPσ sEcto-Fc (mouse) (UniProt B0V2N1); test: solid phase binding assay, immobilised mouse RPTPσ sEcto-Fc, bound AP activity; Kd from the binding curve, one-to-one binding assumed; Scatchard inset
[3] = target: T1, mouse RPTPσ sEcto-Fc (Mus musculus, UniProt B0V2N1); test: Solid phase binding assay: proteoglycan-AP fusion proteins on immobilised RPTPσ sEcto-Fc; conditions: neurocan pre-treated with chondroitinase ABC; glypican-2 pre-treated with heparitinase III
T1 construct: made in house; host or cells: transiently transfected 293T cells
T1 sequence (B0V2N1 30-851 isoform B0V2N1-3 limits assumed): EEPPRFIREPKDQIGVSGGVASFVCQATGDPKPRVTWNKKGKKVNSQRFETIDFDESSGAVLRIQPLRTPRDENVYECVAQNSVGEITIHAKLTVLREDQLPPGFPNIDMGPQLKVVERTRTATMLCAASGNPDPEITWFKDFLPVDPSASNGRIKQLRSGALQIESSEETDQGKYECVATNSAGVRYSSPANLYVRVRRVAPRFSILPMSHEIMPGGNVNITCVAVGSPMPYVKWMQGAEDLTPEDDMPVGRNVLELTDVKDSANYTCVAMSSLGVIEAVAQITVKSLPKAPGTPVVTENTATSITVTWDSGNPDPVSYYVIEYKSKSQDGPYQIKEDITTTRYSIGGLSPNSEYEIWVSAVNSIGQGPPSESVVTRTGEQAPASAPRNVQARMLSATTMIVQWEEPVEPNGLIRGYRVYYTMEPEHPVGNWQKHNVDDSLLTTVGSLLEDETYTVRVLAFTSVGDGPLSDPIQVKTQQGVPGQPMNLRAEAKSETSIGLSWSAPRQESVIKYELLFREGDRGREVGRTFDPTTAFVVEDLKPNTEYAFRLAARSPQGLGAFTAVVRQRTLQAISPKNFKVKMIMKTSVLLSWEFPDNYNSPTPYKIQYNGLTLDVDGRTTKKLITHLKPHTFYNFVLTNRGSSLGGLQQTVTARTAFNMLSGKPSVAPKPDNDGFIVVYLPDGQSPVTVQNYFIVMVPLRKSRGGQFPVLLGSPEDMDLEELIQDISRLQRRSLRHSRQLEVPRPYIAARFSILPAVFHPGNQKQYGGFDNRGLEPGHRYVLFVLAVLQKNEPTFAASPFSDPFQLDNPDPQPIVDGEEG
Method: Analysis of binding between RPTPσ sEcto-Fc and Glypican-2 or Neurocan alkaline phosphate (AP) fusion proteins was performed as described previously (S2, S26). All fusion proteins were produced in transiently transfected 293T cells. Briefly, the RPTPσ Fc-fusion protein was immobilised on 96-well Reactibind Protein A-coated plates (Pierce) and incubated with soluble proteoglycan-AP proteins which had been normalized for equal input AP activity. AP activity was determined by measuring substrate turnover on a microplate reader as described (S27, S28). […] In FIG. 23, the binding between RPTPσ-Fc and heparin-derived size-fractionated oligosaccharides with different lengths (HS6, HS8, HS10, HS17, HS23, HS30 and HS67, corresponding to hexasaccharide, octasaccharide, decasaccharide, or approximately 17, 23, 30 and 67 saccharide units; molecular weights 1,800 Da, 3,000 Da, 5,000 Da, 7,000 Da, 9,000 Da, and 20,000 Da; Neoparin) was analyzed with RPTPσ-Fc immobilised on 96-well Reactibind Protein A-coated plates (Pierce) and incubated with soluble biotinalated HS. The bound HS was quantified by AP enzyme activity following incubation with streptavidin-AP (Promega). […]

[4] = system: wild-type mouse DRG neurons; test: DRG neurite outgrowth assay (GAP-43 immunostaining, total neurite outgrowth); assay type: cell-based; conditions: for effect on neurite outgrowth of wild-type neurons: poly-D-lysine/laminin supplemented with neurocan 5 μg/ml or glypican-2 30 μg/ml
Method: (§1) DRGs of P8-12 RPTPσ^+/+ or RPTPσ^−/− mice were cut off from all roots. Neurons were dissociated and subjected to neurite outgrowth assays and analysis as described previously (S2). For experiments in FIG. 1, recombinant mouse Neurocan (5800-NC, R&D Systems) was used at 5 μg/ml and recombinant mouse Glypican-2 (2355-GP, R&D Systems) at 30 μg/ml. In FIG. 5, 30 μg/ml of Glypican-2 was pre-incubated with 1 unit/ml of Heparitinase III (HPNIII, H8891, Sigma) at 37° C. for 4 hrs where indicated, prior to use in outgrowth assays. For experiments in FIG. 19, recombinant mouse glypican-2 was used at 5 μg/ml, and Chondroitin Sulfate Proteoglycan mixture (CSPG, CC117, Millipore) was at 125 μg/ml. For experiments in FIGS. 24 and 25, Chondroitin Sulfate Proteoglycan mixture (CSPG, CC117, Millipore) was at 60 μg/ml, with or without the addition of HS at indicated length and concentration (1 μM for all HS in […]). Proteoglycans and heparin oligosaccharides were added to neuronal cultures 30 min after seeding and were replenished 24 hrs later. At 48 hrs after seeding, cells were fixed and immunostained with anti-GAP43 antibody (NB300-143, Novus). The whole of each well was scanned with a fluorescence microscope and the images were then analyzed for total neurite outgrowth using the Metamorph program.

[5] = system: RPTPσ−/− P8 mouse DRG neurons; test: DRG neurite outgrowth assay in RPTPσ−/− neurons; assay type: cell-based; conditions: neurocan 5 μg/ml or glypican-2 30 μg/ml; 48 hours
Method: as §1

[6] = target: Mouse RPTPσ sEcto-Fc (mouse) (UniProt B0V2N1); test: solid phase binding assay, immobilised mouse RPTPσ sEcto-Fc, bound AP activity; Kd from the binding curve, one-to-one binding assumed; Scatchard inset; remark: listed apart in the source

decrease in outgrowth of wild-type DRG neurons (neurite outgrowth assay) [1]: 60%
Molecule: recombinant mouse Neurocan (5800-NC, R&D Systems) (from UniProt P55066 23-637)

Kd [2]: 21.2 nM
Molecule: Neurocan-alkaline phosphatase

binding to RPTPσ after enzymatic removal of GAG chains [3]: dramatically reduced binding
B1: glypican-2: a representative HSPG; Glypican2-AP fusion in binding assays, recombinant mouse Glypican-2 (2355-GP, R&D Systems) in outgrowth assays (protein)
chain: HGSEAKVVRSCAETRQVLGARGYSLNLIPPSLISGEHLQVCPQEYTCCSSETEQKLIRDAEVTFRGLVEDSGSFLIHTLAARHRKFNEFFREMLSISQHSLAQLFSHSYGRLYSQHAVIFNSLFSGLRDYYEKSGEGLDDTLADFWAQLLERAFPLLHPQYSFPPDFLLCLTRLTSTADGSLQPFGDSPRRLRLQISRALVAARALVQGLETGRNVVSEALKVPVLEGCRQALMRLIGCPLCRGVPSLMPCRGFCLNVAHGCLSSRGLEPEWGGYLDGLLLLAEKLQGPFSFELAAESIGVKISEGLMHLQENSVKVSAKVFQECGTPHPVQSRSRRAPAPREEASRSWRASAEEERPTTAAGTNLHRLVWELRERLSRVRGFWAGLPVTVCGDSRMAADLSQETAPCWTGVGRGRYMSPVVVGSLNEQLHNPELDTSSPDVPTRRRRLHLRAATARMKAAALGQDLDMHDADEDASGSGGGQQYADDWKAGAVPVVPPARPPRPPRPPRRDGLGVRGGSGSARYNQGRSRNLGS
neurite outgrowth relative to control at lower concentration ([4]; glypican-2 5 μg/ml, wild-type P10 DRG neurons (FIG. 19)): promoted outgrowth to a lesser extent
growth-promoting effect after heparitinase III treatment ([4]; glypican-2 30 μg/ml pre-incubated with 1 unit/ml HPNIII): significantly reduced its growth-promoting ability; also recorded: did not completely eliminate the growth promoting effect
effect on neurite outgrowth of wild-type neurons ([4]; 48 hours): strongly promoted outgrowth; also recorded: promotion of outgrowth
effect on neurite outgrowth of RPTPσ−/− neurons compared with wild-type [5]: reduced to undetectable levels

Kd [6]: 10.5 nM
B2: Glypican-2-AP (protein, mouse, UniProt Q8BKV1 22-555, looked up, not shown: large carriers)
chain: HGSEAKVVRSCAETRQVLGARGYSLNLIPPSLISGEHLQVCPQEYTCCSSETEQKLIRDAEVTFRGLVEDSGSFLIHTLAARHRKFNEFFREMLSISQHSLAQLFSHSYGRLYSQHAVIFNSLFSGLRDYYEKSGEGLDDTLADFWAQLLERAFPLLHPQYSFPPDFLLCLTRLTSTADGSLQPFGDSPRRLRLQISRALVAARALVQGLETGRNVVSEALKVPVLEGCRQALMRLIGCPLCRGVPSLMPCRGFCLNVAHGCLSSRGLEPEWGGYLDGLLLLAEKLQGPFSFELAAESIGVKISEGLMHLQENSVKVSAKVFQECGTPHPVQSRSRRAPAPREEASRSWRASAEEERPTTAAGTNLHRLVWELRERLSRVRGFWAGLPVTVCGDSRMAADLSQETAPCWTGVGRGRYMSPVVVGSLNEQLHNPELDTSSPDVPTRRRRLHLRAATARMKAAALGQDLDMHDADEDASGSGGGQQYADDWKAGAVPVVPPARPPRPPRPPRRDGLGVRGGSGSARYNQGRSRNLG
modifications: carries heparan sulfate GAG chains (removed by heparitinase III)

binding to RPTPσ after enzymatic removal of GAG chains [3]: dramatically reduced binding
B3: neurocan: a representative CSPG; Neurocan-AP fusion in binding assays, recombinant mouse Neurocan (5800-NC, R&D Systems) in outgrowth assays (protein)
chain: DQDTQDTTATEKGLRMLKSGSGPVRAALAELVALPCFFTLQPRLSSLRDIPRIKWTKVQTASGQRQDLPILVAKDNVVRVAKGWQGRVSLPAYPRHRANATLLLGPLRASDSGLYRCQVVKGIEDEQDLVTLEVTGVVFHYRAARDRYALTFAEAQEACRLSSATIAAPRHLQAAFEDGFDNCDAGWLSDRTVRYPITQSRPGCYGDRSSLPGVRSYGRRDPQELYDVYCFARELGGEVFYVGPARRLTLAGARAQCQRQGAALASVGQLHLAWHEGLDQCDPGWLADGSVRYPIQTPRRRCGGPAPGVRTVYRFANRTGFPAPGARFDAYCFRAHHHTAQHGDSEIPSSGDEGEIVSAEGPPGRELKPSLGEQEVIAPDFQEPLMSSGEGEPPDLTWTQAPEETLGSTPGGPTLASWPSSEKWLFTGAPSSMGVSSPSDMGVDMEATTPLGTQVAPTPTMRRGRFKGLNGRHFQQQGPEDQLPEVAEPSAQPPTLGATANHMRPSAATEASESDQSHSPWAILTNEVDEPGAGSLGSRSLPESLMWSPSLISPSVPSTESTPSPKPGAAEAPSVKSAIPHLPRLPSEPPAPSPGPSEALSAVSLQASSADGSPD
effect on neurite outgrowth of wild-type neurons ([4]; 48 hours): inhibition
reduction of neurite outgrowth ([4]; wild-type DRG neurons, neurocan 5 μg/ml, 48 hours): approximately 60%
effect on neurite outgrowth of RPTPσ−/− neurons compared with wild-type [5]: inhibitory effect was decreased

— patent publication US9744188B2, “Methods of promoting neuronal outgrowth by gypican 2 that binds to receptor protein tyrosine phosphatase sigma” (PRESIDENT AND FELLOWS OF HARVARD COLLEGE, priority 2011, dated 2017)
